In article PMC2821021 (Biochemical and biophysical research communications, 2009):

Target: T1, 1st beta propeller of human LRP5 (human, UniProt O75197 32-338)
T1 sequence (looked up): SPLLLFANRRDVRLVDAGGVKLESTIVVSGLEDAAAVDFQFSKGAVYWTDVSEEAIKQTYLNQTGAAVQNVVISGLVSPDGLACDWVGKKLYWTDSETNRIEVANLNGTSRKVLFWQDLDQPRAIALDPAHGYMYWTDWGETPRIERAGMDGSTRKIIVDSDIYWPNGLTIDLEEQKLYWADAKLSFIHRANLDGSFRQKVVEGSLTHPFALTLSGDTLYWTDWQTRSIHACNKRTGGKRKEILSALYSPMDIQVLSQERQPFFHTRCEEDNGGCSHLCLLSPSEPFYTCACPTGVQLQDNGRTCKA
Experiment: SPR

binding result: binds
B1: Recombinant insect cell-produced human sclerostin (natural protein, UniProt Q9BQB4 24-213, looked up)
chain: QGWQAFKNDATEIIPELGEYPEPPPELENNKTMNRAENGGRPPHHPFETKDVSEYSCRELHFTRYVTDGPCRSAKPVTELVCSGQCGPARLLPNAIGRGKWWRPSGPDFRCIPDRYRAQRVQLLCPGGEAPRARKVRLVASCKCKRLTRFHNQSELKDFGTEAARPQKGRKPRPRARSAKANQAELENAY
